In publication PMC5834530:

Legend:
[1] = target: MGG_01005 (Magnaporthe oryzae dynein light chain Tctex-type 1, dynlt1/3), wild type, recombinant (Magnaporthe oryzae) (UniProt G4NCW2); test: AUC
[2] = target: MGG_01005 (Magnaporthe oryzae dynein light chain Tctex-type 1, dynlt1/3), wild type, recombinant (Magnaporthe oryzae) (UniProt G4NCW2); test: SEC; gel filtration chromatography of MGG_01005 (Supplementary Figure S3)
[3] = target: MGG_01005 (Magnaporthe oryzae dynein light chain Tctex-type 1, dynlt1/3), wild type, recombinant (Magnaporthe oryzae) (UniProt G4NCW2); test: ITC
[4] = target: MGG_01005 (Magnaporthe oryzae dynein light chain Tctex-type 1, dynlt1/3), wild type, recombinant (Magnaporthe oryzae) (UniProt G4NCW2); test: ITC; remark: listed apart in the source

“MGG_01005 (Magnaporthe oryzae dynein light chain Tctex-type 1, dynlt1/3), wild type, recombinant (from UniProt G4NCW2 1-153) (natural protein)” was tested, and the stoichiometry N [1] was 2 and the stoichiometry N [2] was 2.

Substance MoDyn1I2^117–150 peptide has a Kd [3] of 5.39 µM, a stoichiometry N [3] of 0.55 and a stoichiometry N [4] of 0.4 to 0.7.

With MoDyn1I2^122–141 peptide the Kd [3] was 15.2 µM, the dH [3] was -13.7 kJ/mol and the stoichiometry N [3] was 1.13.
